According to the nanobody polyreactivity screen of Harvey et al. (2022):

Assay: yeast display, Sf9 membrane polyspecificity reagent, FACS + sequencing; frameworks hold sequencing errors
Outline: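 Galactose induction of a Saccharomyces cerevisiae BJ5465 synthetic nanobody display library ran 36–48 hours. The cells were then stained for 1 hour at 4 °C with 10% biotinylated, detergent-solubilized Sf9 membrane reagent, pulled down on streptavidin microbeads and FACS-sorted into low and high (top ~1%) gates on expression and reagent-binding fluorescence. Labels for polyreactivity follow the gate of origin.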

Sequence	polyreactivity (PSR sort gate)
QVQLVESGGGIVQAGGSLRLSCAASGLIFYTYAMGWYRQAPGKEREIVAAISRRGGSTYYADSVKGRFTISRDNAKNTVYLQMNSLKPEDTAVYYCNARGGRYGTYSHYGYWGQGTQVTVSS	high polyreactivity
QVQLVESGGGIVQAGGSLRLSCAASGLTFGFNAKGWYTQAPGQERELVATIDLNGGSTTYADSVKGRFTLSRDNAKNTVYLQMNSLKPEDTAVYYCAAQTGFVSHFFSHYDYGGQGTQVTVSS	low polyreactivity
QVQLVESGGGIVQAGGSLRLSCAASGLTFVNYAMGSYRQAPGKERELVAAITVNGGRTYYADSVKGRFTISRDNAKNTVYLQMFSLKPEDTAVYFCAAVYYRHGYTYSSDYWGQGTQVTVSS	high polyreactivity
QVQLVESGGGIVQAGGSLRLSCAASGNIFPYYDMGWYRPAPGKERELVAAITSSASGTYYADSVKGRFTISRDNAKNTVYLQMNSLKPEDTAVYYCAAGVFFFTFDYWGQGTQVTVSS	low polyreactivity
QVQLVESGGGIVQAGGSLRLSCAASGNTFNFYAMGWYRQAPGKERELVASITSGGGTNYADSVKGRFTISRDNAKNTVYLQMNSLKPEDTAVYYCADQFYYHFRYHFDWGLGTQVTVSS	low polyreactivity
QVQLVESGGGIVQAGGSLRLSCAASGNTYRWYAMGWNIQAPGKEREFVADITVRGGSTYYADSVKGRFTISRDNAKNTVYLQMNSLKPEDTAVYYCAADYRYGGSRGYRYDYWGQGTQVTVSS	low polyreactivity
QVQLVESGGGIVQAGGSLRLSCAASGRIFGGNSMGWYRQAPGKERELVAAITTSGGSTYYADSVKGRFTISRDNAKNTVYLQMNSLKPEDTAVYSCAAGIGDSYWYRRYGYWGQGTQVTVSS	low polyreactivity
QVQLVESGGGIVQAGGSLRLSCAASGRIFGHYAMGWYRPAPGKERELVAAITKNGDSTYYADSVKGRFTISRDNAKNRVYLPMNSLKPEDTAVYYCNAVYDLVCGEGYDSWGQGTQVTVSS	low polyreactivity
QVQLVESGGGIVQAGGSLRLSCAASGRIFGWYAMGWYREAPGKERELVAAISSGGRTKYADSVKGRFTISRDNAKNTVYLQMNSLKAEDTAVYYCNARRSYLPYKFGYDYWGQGTQVTVSS	low polyreactivity
QVQLVESGGGIVQAGGSLRLSCAASGRIFKYNAMGWYRQAPGKERELVAAISWSDGSTYYADSVKGRFTISRDNAKNTVYLQMNSLKPEDTAVYYCAARGYGFPELDYWGQGTQVTVSS	high polyreactivity
QVQLVESGGGIVQAGGSLRLSCAASGRIFQFYAMGWYRQAPGKERELVAGITTSGGSTYYADSVKGRFTISRDNAKNTVYLQMNSLKPEDTAVYYCAASRHFARHRGYYFRYDYWGQGTQVTVSS	high polyreactivity
QVQLVESGGGIVQAGGSLRLSCAASGRIFQYYAMGWYRQAPGKERELVASISGRGGRTYYADSVKGRFTISRDNAKNTVYLQMNSLKPEDTAVYYCNAVFSTIRYIRSYNYWGQGTQVTVSS	high polyreactivity
QVQLVESGGGIVQAGGSLRLSCAASGRIIGYYAMGWYIQAPGKERELVARISSSGGSTYYADSVKGRFTISRDNAKNTVYLQMNSLKPEVTAVYYCNTASNRFPGWRAEFDYWGQGTQVTVSS	low polyreactivity
QVQLVESGGGIVQAGGSLRLSCAASGRTFAVYAMGWYRQAPGKERELVAAINSSGRTDYADSVKGRFTISRDNAKNTVYLQMNSLKPEDTAVYYCNADFYFRRYRYRYNYWGQGTQVTVSS	high polyreactivity
QVQLVESGGGIVQAGGSLRLSCAASGRTFRINGMGWYRQAPGKERELIAAISDGGSTNYADSVKGRFTISRDNAKNTVYLQMNSLKPEDTAVYYCAVDPYYFFYDEWLGDPNFDYWGQGTQVTVSS	low polyreactivity
QVQLVESGGGIVQAGGSLRLSCAASGRTFRRYVMGWYRQAPGKERELVAAITVSGGNTYYADSVKGSFTISRDNAKNTVYLQMNSLKPEDTAVYYCNADAGAIYYRRYHFYYWGQGTQVTVSS	low polyreactivity
QVQLVESGGGIVQAGGSLRLSCAASGRTFRSNVMGWYRQAPGKERELVAAISWRGGNTHYADSVKGRFTISRDNAKNTVYLQMNSLKREDTAVFYCAARVTSRRDPDQIHGYWGQGTQVTVSS	high polyreactivity
QVQLVESGGGIVQAGGSLRLSCAASGRTFRYNTMGSYRQAPGKERELVAAINSRGGSTYYADSVKGRFTISRDNAKNTVYLQMNSLKPEDTAVYYCAALTRYNTASGYDYWGQGTQVTVSS	high polyreactivity
QVQLVESGGGIVQAGGSLRLSCAASGRTFSSYARGWYRQAPGKERELVAAISSDGVDTYYADSVKGRFTISRDNAKNTVYLQMNSLKPEDTAVYYCNAEEGGPEYAYSYYRMDYWGQGTQVTVSS	low polyreactivity
QVQLVESGGGIVQAGGSLRLSCAASGRTFYANAMGWYRQAPGKERELVAAISTVGDGTYYADSVKGRFTISRDNAKYTVYLQMNSLKPEDTAVYYCAVRHRASGILYDYWRQGTQVTVSS	low polyreactivity
QVQLVESGGGIVQAGGSLRLSCAASGRTFYSSAMGWYRQAPGKERALVAAITSDGGTYYADSVKGRFTISRDNAKNTVYLQMNSLKPEDTAVYYCNTRDLYGYPQVTGYDYWGQGSQVTVSS	low polyreactivity
QVQLVESGGGIVQAGGSLRLSCAASGRTLQRNAMGWYRQAPGKERELVAAISWSGASTYYADSVKGRFTISRDNAKNTVYLQMNSLKPEDTAVYYCAATYIDRGNIYDYWGQGTQVTVSS	high polyreactivity

Sequence	polyreactivity (PSR sort gate)
QVQLVESGGGIVQAGGSLRLSCAASGSIFDVYAMGWYRQAPGKERELVAAITWRGGNTYYADSVKGRFTISRDNAKNTVYLQMNSLKPEDTAVYYCNALHRIRYTPSSRYDYWGQGTQVTVSS	low polyreactivity
QVQLVESGGGIVQAGGSLRLSCAASGSIFHYYAMGWYRQAPGKESELVAAISWSGGRTNYADSVKGRFTISRDNAKNTVYLQMNSLKPEDTAVYYCAAAERSFSGGGKIGKYYYWGQGTQVTVSS	high polyreactivity
QVQLVESGGGIVQAGGSLRLSCAASGSIFLYYAMGWYRQAPGKERELVAPIRGSGSSTYYADSVKGRFTISRDNAKNTVYLQMNSLKPEDTAVYYCSAKGYRWFRHGGYYFKFDYWGQGTQVTVSS	high polyreactivity
QVQLVESGGGIVQAGGSLRLSCAASGSIFPDNAMGWYRQAPGKERELVAAIDKGTGSTNYADSVKGRFTISRDNAKNTVYLQMNSLKPEDTAVYYDYWGQGTQVSVSS	low polyreactivity
QVQLVESGGGIVQAGGSLRLSCAASGSIFPDNTMGWYRQAPGKERELVAAITGDGSTYYADSVKGRFTISRDNAKNTVYLERNSLKPEDTAVYYCAAASPSWSYWPRDYWGQGTQVTVSS	low polyreactivity
QVQLVESGGGIVQAGGSLRLSCAASGSIFSYYAMGWYRQAPGKERELVAAITSGGATTYYADSVKGRFTISRDNAKNTVYLQMNSLKPEDTAVYYCAAGYYVYYRWWELDYWGQGTQVTVSS	low polyreactivity
QVQLVESGGGIVQAGGSLRLSCAASGSISVPYGMGWYRPAPGKERELVAAITGGSTYYADSVKGRFTISRDNAKNTVYLQMNSLIPEDTAVYYCFDVNTDVLSRVYRGWGYYYWGQGTQVTVSS	low polyreactivity
QVQLVESGGGIVQAGGSLRLSCAASGSNFVVNAMGWYRQAPGKERELVAAITQSGGSTFYADSVKGRFTISRDNAKNTVYLQMNSLIPEDTAVYYWGQGTQVTVSS	low polyreactivity
QVQLVESGGGIVQAGGSLRLSCAASGSTFAANAMGWYRPAPGKERELVAAITSGGGSTYYADSVKGRFTISRDNAKNTVYLQMNSLKPEDTAVYYCNAADWLETQVDLDYWGQGTQVTVSS	low polyreactivity
QVQLVESGGGIVQAGGSLRLSCAASGSTFFSYAMGLYRQAPGKERELVAGIDWNGGDTNYADSVKGRFTISRDNAKNTVYLQMNSLKPEETAVYYCATDYSFPGPFRRRERFDYWGQGTQVTVSS	low polyreactivity
QVQLVESGGGIVQAGGSLRLSCAASGSTFGFYAMGWYRQAPGKERELVAAISSAARTYYADSVKGRFTISRDNAMNTVYLQMNSMKPEDTAVYYCSAEAYHWTSYIGYGGVYYWGQGTKVTVSS	low polyreactivity
QVQLVESGGGIVQAGGSLRLSCAASGSTFGGNAMGWYRQAPGKERELVAAITSGTGTHYADSVKGRFTISRDNAKNTVYLQMNSLKPEATAVYFCAAEVWSWAGIWGYEYWGQGTQVSVSS	low polyreactivity
QVQLVESGGGIVQAGGSLRLSCAASGSTFLTNTMGWYRQAPGTESELVAAITLRGGRTYYADSVKGRFTISRDNAKNTVYLQMNSLKPEDTAVYYCNARNYYYPSDRDYWGQGTQVTGSS	low polyreactivity
QVQLVESGGGIVQAGGSLRLSCAASGSTFPPNAMGWYRQAPGKERELVAGINGSGGRTYYADSVKGRFTISRDNAKNTVYLQMNSLKPVDTAVYYCATRLRSEYYYNKWYYHWGQGTQVTVSS	high polyreactivity
QVQLVESGGGIVQAGGSLRLSCAASGSTFRRYAMGWYRQAPGKERELVASISWSGGSTSYADSVKGRFTISRDNAKNTVYLQMNSLKPEDTAGYYCAAVRYYWGEYYARYAYEYWGQGTQVTVSS	high polyreactivity
QVQLVESGGGIVQAGGSLRLSCAASGSTFWFNDMGWYRAAPGKEREFVAAISSSGGSTYYADSVKGRFTISRDNAKNTVYVQMNSLKPEDTAVYYWAVEVVRDYRYADWGQGTQVTVSS	low polyreactivity
QVQLVESGGGIVQAGGSLRLSCAASGSTFYLYAMGWYRQAPGKERELVAAISTVGSTNYADSVNGRFTISRDNAKNTVYLQMNSLKPEDTAVYYCNAEYYGVVEYDYWGHGTQVTVSS	low polyreactivity
QVQLVESGGGIVQAGGSLRLSCAASGSTFYVYALGWYRQAPGKERELVAAINFNGGGTYYADSVKGRFTISRDNAKNTVYLQMNRLKPEDTAVYYCNAEDDYTYDRSFGGYKYDYWGQGTQVTVSS	low polyreactivity
QVQLVESGGGIVQAGGSLRLSCAASGSTLFGDAMGLYRQAPGKERELVAAINRRGSTNYADSVKGRFTISRDNAKNTVYLKMNCLKPEDTAVYYCAAYIYKTYRYYYWGQGTQVTVSS	high polyreactivity
QVQLVESGGGIVQAGGSLRLSCAASGYTFTGYSMGWYRQAPGKEREFVAGITWRTGRTYYADSVKGRFTISRDNAKNNVYLQMNSLKREDTAVYFCYKDHQRRYYWSYDYWGQGTQVTVSS	low polyreactivity
QVQLVESGGGIVQAGGSLRLSCAASVFTFRANTMGWYRPAPGKERELVAAISPSGGSTYYADSVKGRFTISRDNAKNTVYLQMNSLKPEDTAVYYCNADIEYRPGHGRLGDYDYWGQGTQVTVSS	low polyreactivity
